Series [1] relates to HeLa Kyoto. The experiment in a line: solubility in G1/S (NP-40 vs SDS abundance) (log2 ratio); higher = more soluble. Particulars: cell cycle stage: G1/S.
The test system of series [2] is HeLa Kyoto. The experiment in a line: melting temperature (median over replicates), in situ; higher = more thermally stable.
Series [3] deals with HeLa Kyoto. The experiment in a line: solubility change mitosis vs G1/S (difference of NP-40 vs SDS log2 ratios) (log2 ratio difference); higher = more soluble in mitosis.
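Throughout, for melting temperature (median over replicates), in situ: HeLa Kyoto cells synchronized by double thymidine or nocodazole block, proteins quantified by TMT10plex mass spectrometry, three independent biological replicates.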
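Throughout, for solubility change mitosis vs G1/S (difference of NP-40 vs SDS log2 ratios): synchronized HeLa Kyoto cells (double thymidine block for G1/S, nocodazole release for mitosis), protein amounts in NP-40 versus SDS lysates quantified by mass spectrometry, three biological replicates.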
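Throughout, for solubility in G1/S (NP-40 vs SDS abundance): HeLa Kyoto cells arrested at G1/S by double thymidine block, proteins quantified by TMT10plex mass spectrometry in mild NP-40 versus SDS extracts, three biological replicates.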

For “MPAFLGLKCLGKLCSSEKSKVTSSERTSARGSNRKRLIVEDRRVSGTSFTAHRRATITHLLYLCPKDYCPRGRVCNSVDPFVAHPQDPHHPSEKPVIHCHKCGEPCKGEVLRVQTKHFHIKCFTCKVCGCDLAQGGFFIKNGEYLCTLDYQRMYGTRCHGCGEFVEGEVVTALGKTYHPNCFACTICKRPFPPGDRVTFNGRDCLCQLCAQPMSSSPKETTFSSNCAGCGRDIKNGQALLALDKQWHLGCFKCKSCGKVLTGEYISKDGAPYCEKDYQGLFGVKCEACHQFITGKVLEAGDKHYHPSCARCSRCNQMFTEGEEMYLQGSTVWHPDCKQSTKTEEKLRPTRTSSESIYSRPGSSIPGSPGHTIYAKVDNEILDYKDLAAIPKVKAIYDIERPDLITYEPFYTSGYDDKQERQSLGESPRTLSPTPSAEGYQDVRDRMIHRSTSQGSINSPVYSRHSYTPTTSRSPQHFHRPGNEPSSGRNSPLPYRPDSRPLTPTYAQAPKHFHVPDQGINIYRKPPIYKQHAALAAQSKSSEDIIKFSKFPAAQAPDPSETPKIETDHWPGPPSFAVVGPDMKRRSSGREEDDEELLRRRQLQEEQLMKLNSGLGQLILKEEMEKESRERSSLLASRYDSPINSASHIPSSKTASLPGYGRNGLHRPVSTDFAQYNSYGDVSGGVRDYQTLPDGHMPAMRMDRGVSMPNMLEPKIFPYEMLMVTNRGRNKILREVDRTRLERHLAPEVFREIFGMSIQEFDRLPLWRRNDMKKKAKLF [ABLIM1]”, the “solubility in G1/S (log2)” value in series [1] was -0.8. For the same sequence, the values for the melting temperature in series [2] (cell cycle stage: G1/S) and in series [2] (cell cycle stage: mitosis) were 46.2 °C and 51.7 °C, respectively. For the same sequence, the “solubility change mitosis (log2)” value in series [3] is 0.599.

For “MPIVDKLKEALKPGRKDSADDGELGKLLASSAKKVLLQKIEFEPASKSFSYQLEALKSKYVLLNPKTEGASRHKSGDDPPARRQGSEHTYESCGDGVPAPQKVLFPTERLSLRWERVFRVGAGLHNLGNTCFLNATIQCLTYTPPLANYLLSKEHARSCHQGSFCMLCVMQNHIVQAFANSGNAIKPVSFIRDLKKIARHFRFGNQEDAHEFLRYTIDAMQKACLNGCAKLDRQTQATTLVHQIFGGYLRSRVKCSVCKSVSDTYDPYLDVALEIRQAANIVRALELFVKADVLSGENAYMCAKCKKKVPASKRFTIHRTSNVLTLSLKRFANFSGGKITKDVGYPEFLNIRPYMSQNNGDPVMYGLYAVLVHSGYSCHAGHYYCYVKASNGQWYQMNDSLVHSSNVKVVLNQQAYVLFYLRIPGSKKSPEGLISRTGSSSLPGRPSVIPDHSKKNIGNGIISSPLTGKRQDSGTMKKPHTTEEIGVPISRNGSTLGLKSQNGCIPPKLPSGSPSPKLSQTPTHMPTILDDPGKKVKKPAPPQHFSPRTAQGLPGTSNSNSSRSGSQRQGSWDSRDVVLSTSPKLLATATANGHGLKGNDESAGLDRRGSSSSSPEHSASSDSTKAPQTPRSGAAHLCDSQETNCSTAGHSKTPPSGADSKTVKLKSPVLSNTTTEPASTMSPPPAKKLALSAKKASTLWRATGNDLRPPPPSPSSDLTHPMKTSHPVVASTWPVHRARAVSPAPQSSSRLQPPFSPHPTLLSSTPKPPGTSEPRSCSSISTALPQVNEDLVSLPHQLPEASEPPQSPSEKRKKTFVGEPQRLGSETRLPQHIREATAAPHGKRKRKKKKRPEDTAASALQEGQTQRQPGSPMYRREGQAQLPAVRRQEDGTQPQVNGQQVGCVTDGHHASSRKRRRKGAEGLGEEGGLHQDPLRHSCSPMGDGDPEAMEESPRKKKKKKRKQETQRAVEEDGHLKCPRSAKPQDAVVPESSSCAPSANGWCPGDRMGLSQAPPVSWNGERESDVVQELLKYSSDKAYGRKVLTWDGKMSAVSQDAIEDSRQARTETVVDDWDEEFDRGKEKKIKKFKREKRRNFNAFQKLQTRRNFWSVTHPAKAASLSYRR [USP36]”, the “solubility in G1/S (log2)” value in series [1] is -1.41. The melting temperature was determined as 52.3 °C in series [2] (cell cycle stage: G1/S) and 52.2 °C in series [2] (cell cycle stage: mitosis). In addition, the “solubility change mitosis (log2)” value in series [3] was 0.946.

As to “MPKTMHFLFRFIVFFYLWGLFTAQRQKKEESTEEVKIEVLHRPENCSKTSKKGDLLNAHYDGYLAKDGSKFYCSRTQNEGHPKWFVLGVGQVIKGLDIAMTDMCPGEKRKVVIPPSFAYGKEGYAEGKIPPDATLIFEIELYAVTKGPRSIETFKQIDMDNDRQLSKAEINLYLQREFEKDEKPRDKSYQDAVLEDIFKKNDHDGDGFISPKEYNVYQHDEL [FKBP7]”, the “solubility in G1/S (log2)” value in series [1] amounted to 0.654. In addition, the values for the melting temperature in series [2] (cell cycle stage: G1/S) and in series [2] (cell cycle stage: mitosis) were 55 °C and 55.8 °C, respectively. Further, the “solubility change mitosis (log2)” value in series [3] was determined as 0.0889.

Take “MPVTVTRTTITTTTTSSSGLGSPMIVGSPRALTQPLGLLRLLQLVSTCVAFSLVASVGAWTGSMGNWSMFTWCFCFSVTLIILIVELCGLQARFPLSWRNFPITFACYAALFCLSASIIYPTTYVQFLSHGRSRDHAIAATFFSCIACVAYATEVAWTRARPGEITGYMATVPGLLKVLETFVACIIFAFISDPNLYQHQPALEWCVAVYAICFILAAIAILLNLGECTNVLPIPFPSFLSGLALLSVLLYATALVLWPLYQFDEKYGGQPRRSRDVSCSRSHAYYVCAWDRRLAVAILTAINLLAYVADLVHSAHLVFVKV [MYADM]”: the “solubility in G1/S (log2)” value in series [1] was -0.352. For the same sequence, the melting temperature came out at 52.9 °C in series [2] (cell cycle stage: G1/S) and 53 °C in series [2] (cell cycle stage: mitosis). Further, the “solubility change mitosis (log2)” value in series [3] is -0.0179.
